# In patent US9067981 (Janssen / Centocor, dated 2015):
# Where a chain is given by its changes, count along the chain named.
# T1: Aβ1-7 peptide (amino acids 1-7 of SEQ ID NO:1)
# T1 construct: also called Aβ 2-7 (the part visible in the superimposed models)
# T1 peptide: DAEFRHD
# T2: Aβ1-10 peptide (immobilized)
# T2 construct: also called Ab1-10
# T2 peptide: DAEFRHDSGY
# B1: Fab fragment of 3D6 (Fab, V domains shown)
# VL: not shown
# V domain: EVKLVESGGGLVKPGASLKLSCAASGFTFSNYGMSWVRQNSDKRLEWVASIRSGGGRTYYSDNVKGRFTISRENAKNTLYLQMSSLKSEDTALYYCVRYDHYSGSSDYWGQGTTITVSS
# notes: also called 3D6 Fab
# B2: 12A11 murine IgG1 kappa monoclonal antibody (antibody, V domains shown)
# VH: QVTLKESGPGILKPSQTLSLTCSFSGFSLSTSGMSVGWIRQPSGKGLEWLAHIWWDDDKYYNPSLKSRLTISKDTSRNQVFLKITSVDTADTATYYCARRTTTADYFAYWGQGTTLTVSS
# VL: DVLMTQTPLSLPVSLGDQASISCRSSQSIVHSNGNTYLEWYLQKPGQSPKLLIYKVSNRFSGVPDRFSGSGSGTDFTLKISRVEAEDLGIYYCFQSSHVPLTFGAGTKLELK
# B3: Fab fragment of 12A11 (Fab, V domains shown)
# VH: B2 VH
# VL: B2 VL
# notes: also called 12A11 Fab
# B4: 12B4 murine IgG2a kappa monoclonal antibody (antibody, V domains shown)
# VH: QVTLKESGPGILQPSQTLSLTCSFSGFSLSTNGMGVSWIRQPSGKGLEWLAHIYWDEDKRYNPSLKSRLTISKDTSNNQVFLKITNVDTADTATYYCARRRIIYDVEDYFDYWGQGTTLTVSS
# VL: B2 VL with S28N, I90V, S96G
# B5: Fab fragment of 12B4 (Fab, V domains shown)
# VH: B4 VH
# VL: B2 VL with S28N, I90V, S96G
# notes: Fab of the murine IgG2a kappa antibody as crystallized; also called 12B4 Fab
# Legend:
# [1] = biological target: T1, Aβ1-7 peptide (amino acids 1-7 of SEQ …); experiment: X-ray crystal structure of the Fab:peptide complex
# [2] = biological target: T2, Aβ1-10 peptide (immobilized); experiment: BIACORE (SPR), immobilized Aβ1-10, bivalent interaction assumed
# [3] = biological target: T3, Aβ1-40 peptide (amino acids 1-40 of SEQ ID NO:1); experiment: comparison of unit cell parameters of the Aβ1-7 and Aβ1-40 crystals
# T3 construct: also called Aβ40
Binder,binding result [1],Kd [2],binding result [3]
B1,binds,,
B2,,8.4 nM,
B3,binds,,binds
B4,,24.5 nM,
B5,binds,,
